Tests used:
[1] = system: E. coli ATCC 25922; experiment: MIC by microdilution in TP-Na 10 mM pH 6.15; type: cell-based, Escherichia coli
Procedure: The IKB206tags endolysin was purified from the Escherichia coli BL21 (DE3) strain, as previously described.
Checkerboard tests were assessed by the microdilution method, as previously described (Moody JA 1992, Moellering E G., Jr.1996). […] Each microtiter well contained 100 μl of a E. coli inoculum of 1×10^5 CFUs mL^−1, with or without the corresponding compounds, in a final volume of 200 μl of Sodium phosphate (TP-Na) buffer 10 mM pH 6.15 per well and the plates were incubated at 37° C. for 17 h.

[2] = system: E. coli strain ATCC 25922; experiment: Enzyme bactericidal activity assay on E. coli ATCC 25922; type: cell-based, Escherichia coli
Procedure: (§1) Briefly, the different bacterial cultures were incubated in the specific media (Table 1) at 37° C. or 30° C., according to the strain, until reaching an A600 of 0.3. The cells were then deposited by centrifugation (4500×g, 10 min) and washed twice with the corresponding buffer, with the A600 being adjusted to ≈0.3. A volume of 160 μl of the bacterial suspension was transferred to sterile 96-well plates to which there were added 40 μl of the enzyme under study in a range of doses comprised between 1 and 60 μg mL^−1. The control wells were treated with the same volume of buffer […]. The plates were incubated at 37° C. Samples were taken at different times, serial dilutions performed, and they were seeded in plates containing the specific medium to determine viable bacteria. The experiments were repeated at least 3 times. The bactericidal effect of IKB206 (and its variants) was quantified as the number of logs reduced in the presence of treatment, after a given incubation time (log10 (N0/Ni), where N0=number of CFU mL^−1 before treatment, and Ni=number of CFU mL^−1 after the corresponding incubation time in the presence of each treatment).

[3] = system: M. lysodeikticus lyophilized cells; experiment: Enzyme specific activity assay (turbidometric, A450 decrease); type: biochemical, Micrococcus lysodeikticus; details: 37° C., 10 mM Na2HPO4/NaH2PO4 pH 6
Procedure: The specific activity (U mG-1) was determined using a suspension of 0.6 mg mL^−1 of M. lysodeikticus lyophilized cells as substrate resuspended in cold buffer of the enzyme (10 mM Na2HPO4/NaH2PO4, PH 6 for IKB206tags and 50 mM K2HPO4/KH2PO4, pH 6.2 for egg white lysozyme) and incubating this suspension at different concentrations of the enzyme. Egg white lysozyme (Fisher BioReagents™ Lysozyme) was used as a control. Specifically, 100 μL of the M. lysodeikticus suspension were plated, in triplicate, into a multi-well plate and 100 μL of the different enzyme concentrations were added to the corresponding well. The plate was incubated at the appropriate temperature into a thermostated spectrophotometer (37° C. for IKB206tags and 25° C. for egg white lysozyme) and the A450 decrease was monitored over 10 min.
Unit definition: 1 unit is that amount of enzyme needed to catalyze a decrease in absorbance at 450 nm of 0.001/min at the appropriate temperature and pH of each lysozyme in a 1 cm cuvette due to lysis using a ˜0.4-0.6 mg/mL suspension of M. lysodeikticus.

[4] = system: E. coli strain DSM 17076 with serotype O157: H7; experiment: Enzyme bactericidal activity assay on E. coli serotype O157:H7; type: cell-based, Escherichia coli; details: 15 μg mL^−1
Procedure: as §1

C[C@@H](O)[C@H]1C(=O)N2C(C(=O)O)=C(SCCN=CN)C[C@H]12 [Imepenem]
MIC [1]: 2.34 µg/mL

C[C@@H](O)[C@H]1C(=O)N2C(C(=O)O)=C(S[C@@H]3CN[C@H](C(=O)N(C)C)C3)[C@H](C)[C@H]12 [Meropenem]
MIC [1]: 0.59 µg/mL

B1: IKB206tags: IKB206 with S-tag at the N-terminal end, 6-His tag at the C-terminal end and thrombin cleavage sites; 329 amino acids (protein)
chain: MKETAAAKFERQHMDSPDLGTLVPRGSMAISDPMKTSPNGIAVTKYFESFEARAYPDPATGGKPYTIGFGTTVYPSGAPVRLGDVCTKEQAEKYLQNDLAKFEKIVSDAVRVPLNQGQFDALVSFTYNLGPANLRSSTLLKKLNAGDYAGAAKEFPRWNRANGKVMKGLTRRRAAEQCLFEGMGGASAIERGVAAANSGTPKNVSRGTSSTKTTPKYKVKNGDNLTKIAKKHNTTVATLLKLNPGIKDPNMIRVGQTLNVTGSGGKTHKVKSGDTLSKIAVDNKTTVSKLMNLNPEITNPNHIKVGQTIRLSLGTLVPRGSLEHHHHHH
modifications: S-tag, 6-His tag, thrombin sites; chimeric endolysin (IKB206tags)
notes: IKB206 with S-tag at the N-terminal end, 6-His tag at the C-terminal end and thrombin cleavage sites; 329 amino acids
reduction in CFU mL^−1 ([2]; 5 μg mL^−1, 15 min of incubation): significant
incubation time for killing the entire culture ([2]; 15 μg mL^−1): 30 min
reduction of the number of CFU mL^−1 ([2]; 15 μg mL^−1, 5 minutes of incubation): more than 2 logs
incubation time for killing the entire culture ([2]; 60 μg mL^−1): 15 min
specific activity [3]: around 8100 U mg^−1
bactericidal activity on serotype O157:H7 [4]: significantly reduced the number of E. coli strain DSM 17076 cells, although it was not capable of killing the entire culture

B2: IKB206AD8: putative endolysin from phage Arya alone, catalytic domain of IKB206 without the D8 domain (protein)
chain: MKTSPNGIAVTKYFESFEARAYPDPATGGKPYTIGFGTTVYPSGAPVRLGDVCTKEQAEKYLQNDLAKFEKIVSDAVRVPLNQGQFDALVSFTYNLGPANLRSSTLLKKLNAGDYAGAAKEFPRWNRANGKVMKGLTRRRAAEQCLFEGMGGASAIERGVAAA
modifications: Enterobacter phage Arya; (1)..(163) Endolysin
bactericidal activity in the absence of the D8 domain [2]: presented bactericidal activity
incubation times to obtain the same levels of bactericidal activity as IKB206 [2]: longer incubation times were needed
reduction in CFU/mL ([2]; 15 μg mL^−1, 60 minutes): about 3 log
reduction in CFU/mL ([2]; 15 μg mL^−1, 180 minutes): about 5 log

Reference: US12655409B2, “Recombinant lysin and its use in the treatment of Gram-negative bacterial infections” (TELUM THERAPEUTICS S.L., priority 2020, dated 2026)
